Laboratory results from patent US12269859B2, “Synthetic immune receptors and methods of use thereof” (Angeles Therapeutics, Inc., priority 2016, dated 2025).

Tested on: target antigen-expressing cell line
Test: Jurkat NFAT-GFP assay, coculture with target cell lines expressing the respective target antigen (summary Table 10A)
Format: cell-based, human
Parameters: key: The signs +/−, +, 2+ etc. after the name of the cell lines indicate the relative degree of positivity on the Jurkat-NFAT-GFP assay as measured by the % GFP positive cells; +: relative degree of positivity on the Jurkat-NFAT-GFP assay as measured by the % GFP positive cells; 2+: relative degree of positivity on the Jurkat-NFAT-GFP assay as measured by the % GFP positive cells
Conditions: SIR-expressing Jurkat-NFAT-GFP cells cocultured with NALM6; relative % GFP positive cells
In short: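 Jurkat cells carrying an NFAT-driven GFP reporter and lentivirally expressing a SIR were cocultured with antigen-bearing target cells (E:T ~1:2) for about 4–18 h. GFP induction read by flow cytometry as % GFP+ cells, scored positive and graded (+/−, +, 2+) against parental Jurkat-NFAT-GFP cells.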

Molecule	NFAT-GFP ASSAY Positive Cell lines: NALM6
092515-Y08 (protein, Synthetic Immune Receptor (SIR)) MALPVTALLLPLALLLHAARPDEIVLTQSPATLSLSPGERATLSCSASSSVSYMHWYQQKPGQAPRLLIYDTSKLASGIPARFSGSGSGTDFTLTISSLEPEDVAVYYCFQGSVYPFTFGQGTKLEIKRGGGGSGGGGSGGGGSQVQLQESGPGLVKPSQTLSLTCTVSGGSISTSGMGVGWIRQHPGKGLEWIGHIWWDDDKRYNPALKSRVTISVDTSKNQFSLKLSSVTAADTAVYYCARMELWSYYFDYWGQGTLVTVSSLESWKDASGWSCTDPQPLKEQPALNDSRYCLSSRLRVSATFWQNPRNHFRCQVQFYGLSENDEWTQDRAKPVTQIVSAEAWGRADCGFTSESYQQGVLSATILYEILLGKATLYAVLVSALVLMAMVKRKDSRGRAKRSGSGATNFSLLKQAGDVEENPGPTSMALPVTALLLPLALLLHAARPDIQMTQTTSSLSASLGDRVTISCRASQDISKYLNWYQQKPDGTVKLLIYHTSRLHSGVPSRFSGSGSGTDYSLTISNLEQEDIATYFCQQGNTLPYTFGGGTKLEITTREQKLISEEDLSSCDVKLVEKSFETDTNLNFQNLSVIGFRILLLKVAGFNLLMTLRLWSSSSRAKRSGSGVKQTLNFDLLKLAGDVESNPGPSRGHMTEYKPTVRLATRDDVPRAVRTLAAAFADYPATRHTVDPDRHIERVTELQELFLTRVGLDIGKVWVADDGAAVAVWTTPESVEAGAVFAEIGPRMAELSGSRLAAQQQMEGLLAPHRPKEPAWFLATVGVSPDHQGKGLGSAVVLPGVEAAERAGVPAFLETSAPRNLPFYERLGFTVTADVEVPEGPRTWCMTRKPGA	RAJI (+), NALM6 (+)

Same assay, conditions: SIR-expressing Jurkat-NFAT-GFP cells cocultured with RAJI; relative % GFP positive cells

Molecule	NFAT-GFP ASSAY Positive Cell lines: RAJI
121515-X07 (protein, Synthetic Immune Receptor (SIR)) MALPVTALLLPLALLLHAARPLEGKPIPNPLLGLDSTGSGEDLKNVFPPEVAVFEPSKAEIAHTQKATLVCLATGFYPDHVELSWWVNGKEVHSGVCTDPQPLKEQPALNDSRYCLSSRLRVSATFWQNPRNHFRCQVQFYGLSENDEWTQDRAKPVTQIVSAEAWGRADCGITSASYHQGVLSATILYEILLGKATLYAVLVSALVLMAMVKRKDSRGRAKRSGSGATNFSLLKQAGDVEENPGPTSTMALPVTALLLPLALLLHAARPDEIVLTQSPATLSLSPGERATLSCSASSSVSYMHWYQQKPGQAPRLLIYDTSKLASGIPARFSGSGSGTDFTLTISSLEPEDVAVYYCFQGSVYPFTFGQGTKLEIKRGGGGSGGGGSGGGGSQVQLQESGPGLVKPSQTLSLTCTVSGGSISTSGMGVGWIRQHPGKGLEWIGHIWWDDDKRYNPALKSRVTISVDTSKNQFSLKLSSVTAADTAVYYCARMELWSYYFDYWGQGTLVTVSSTREQKLISEEDLGSGTPFPSLAPPIMLLVDGKQQMVVVCLVLDVAPPGLDSPIWFSAGNGSALDAFTYGPSPATDGTWTNLAHLSLPSEELASWEPLVCHTGPGAEGHSRSTQPMHLSGEASTARTCPQEPLRGTPGGALWLGVLRLLLFKLLLFDLLLTCSCLCDPAGPLPSPATTTRLRALGSHRLHPATETGGREATSSPRPQPRDRRWGDTPPGRKPGSPVRAKRSGSGVKQTLNFDLLKLAGDVESNPGPSRGHMTEYKPTVRLATRDDVPRAVRTLAAAFADYPATRHTVDPDRHIERVTELQELFLTRVGLDIGKVWVADDGAAVAVWTTPESVEAGAVFAEIGPRMAELSGSRLAAQQQMEGLLAPHRPKEPAWFLATVGVSPDHQGKGLGSAVVLPGVEAAERAGVPAFLETSAPRNLPFYERLGFTVTADVEVPEGPRTWCMTRKPGA	RAJI (+)
060816-H05 (protein, Synthetic Immune Receptor (SIR)) MALPVTALLLPLALLLHAARPDEIVLTQSPATLSLSPGERATLSCSASSSVSYMHWYQQKPGQAPRLLIYDTSKLASGIPARFSGSGSGTDFTLTISSLEPEDVAVYYCFQGSVYPFTFGQGTKLEIKRGGGGSGGGGSGGGGSQVQLQESGPGLVKPSQTLSLTCTVSGGSISTSGMGVGWIRQHPGKGLEWIGHIWWDDDKRYNPALKSRVTISVDTSKNQFSLKLSSVTAADTAVYYCARMELWSYYFDYWGQGTLVTVSSTREQKLISEEDGSGTPFPSLAPPIMLLVDGKQQMVVVCLVLDVAPPGLDSPIWFSAGNGSALDAFTYGPSPATDGTWTNLAHLSLPSEELASWEPLVCHTGPGAEGHSRSTQPMHLSGEASTARTCPQEPLRGTPGGALWLGVLRLLLFKLLLFDLLLTCSCLCDPAGPLPSPATTTRLRALGSHRLHPATETGGREATSSPRPQPRDRRWGDTPPGRKPGSPVRAKRSGSGVKQTLNFDLLKLAGDVESNPGPSRGHMTEYKPTVRLATRDDVPRAVRTLAAAFADYPATRHTVDPDRHIERVTELQELFLTRVGLDIGKVWVADDGAAVAVWTTPESVEAGAVFAEIGPRMAELSGSRLAAQQQMEGLLAPHRPKEPAWFLATVGVSPDHQGKGLGSAVVLPGVEAAERAGVPAFLETSAPRNLPFYERLGFTVTADVEVPEGPRTWCMTRKPGA	RAJI (+)
052316-D03 (protein, Synthetic Immune Receptor (SIR)) MALPVTALLLPLALLLHAARPDEIVLTQSPATLSLSPGERATLSCSASSSVSYMHWYQQKPGQAPRLLIYDTSKLASGIPARFSGSGSGTDFTLTISSLEPEDVAVYYCFQGSVYPFTFGQGTKLEIKRGGGGSGGGGSGGGGSQVQLQESGPGLVKPSQTLSLTCTVSGGSISTSGMGVGWIRQHPGKGLEWIGHIWWDDDKRYNPALKSRVTISVDTSKNQFSLKLSSVTAADTAVYYCARMELWSYYFDYWGQGTLVTVSSLEDLKNVFPPEVAVFEPSEAEISHTQKATLVCLATGFYPDHVELSWWVNGKEVHSGVSTDPQPLKEQPALNDSRYCLSSRLRVSATFWQNPRNHFRCQVQFYGLSENDEWTQDRAKPVTQIVSAEAWGRADCGFTSESYQQGVLSATILYEILLGKATLYAVLVSALVLMAMVKRKDSRGRAKRSGSGATNFSLLKQAGDVEENPGPTSMDWIWRILFLVGAATGAHSFEGSGTREQKLISEEDGSGIQNPDPAVYQLRDSKSSDKSVCLFTDFDSQTNVSQSKDSDVYITDKCVLDMRSMDFKSNSAVAWSNKSDFACANAFNNSIIPEDTFFPSPESSCDVKLVEKSFETDTNLNFQNLSVIGFRILLLKVAGFNLLMTLRLWSSRAKRSGSGVKQTLNFDLLKLAGDVESNPGPSRGHMTEYKPTVRLATRDDVPRAVRTLAAAFADYPATRHTVDPDRHIERVTELQELFLTRVGLDIGKVWVADDGAAVAVWTTPESVEAGAVFAEIGPRMAELSGSRLAAQQQMEGLLAPHRPKEPAWFLATVGVSPDHQGKGLGSAVVLPGVEAAERAGVPAFLETSAPRNLPFYERLGFTVTADVEVPEGPRTWCMTRKPGA	RAJI (+)
052316-J03 (protein, Synthetic Immune Receptor (SIR)) MALPVTALLLPLALLLHAARPDEIVLTQSPATLSLSPGERATLSCSASSSVSYMHWYQQKPGQAPRLLIYDTSKLASGIPARFSGSGSGTDFTLTISSLEPEDVAVYYCFQGSVYPFTFGQGTKLEIKRGGGGSGGGGSGGGGSQVQLQESGPGLVKPSQTLSLTCTVSGGSISTSGMGVGWIRQHPGKGLEWIGHIWWDDDKRYNPALKSRVTISVDTSKNQFSLKLSSVTAADTAVYYCARMELWSYYFDYWGQGTLVTVSSTREQKLISEEDGSGIQNPDPAVYQLRDSKSSDKSVCLFTDFDSQTNVSQSKDSDVYITDKTVLDMRSMDFKSNSAVAWSNKSDFACANAFNNSIIPEDTFFPSPESSCDVKLVEKSFETDTNLNFQNLSVIGFRILLLKVAGFNLLMTLRLWSSRAKRSGSGVKQTLNFDLLKLAGDVESNPGPSRGHMTEYKPTVRLATRDDVPRAVRTLAAAFADYPATRHTVDPDRHIERVTELQELFLTRVGLDIGKVWVADDGAAVAVWTTPESVEAGAVFAEIGPRMAELSGSRLAAQQQMEGLLAPHRPKEPAWFLATVGVSPDHQGKGLGSAVVLPGVEAAERAGVPAFLETSAPRNLPFYERLGFTVTADVEVPEGPRTWCMTRKPGA	RAJI (+)
092515-Y08 (protein, Synthetic Immune Receptor (SIR)) MALPVTALLLPLALLLHAARPDEIVLTQSPATLSLSPGERATLSCSASSSVSYMHWYQQKPGQAPRLLIYDTSKLASGIPARFSGSGSGTDFTLTISSLEPEDVAVYYCFQGSVYPFTFGQGTKLEIKRGGGGSGGGGSGGGGSQVQLQESGPGLVKPSQTLSLTCTVSGGSISTSGMGVGWIRQHPGKGLEWIGHIWWDDDKRYNPALKSRVTISVDTSKNQFSLKLSSVTAADTAVYYCARMELWSYYFDYWGQGTLVTVSSLESWKDASGWSCTDPQPLKEQPALNDSRYCLSSRLRVSATFWQNPRNHFRCQVQFYGLSENDEWTQDRAKPVTQIVSAEAWGRADCGFTSESYQQGVLSATILYEILLGKATLYAVLVSALVLMAMVKRKDSRGRAKRSGSGATNFSLLKQAGDVEENPGPTSMALPVTALLLPLALLLHAARPDIQMTQTTSSLSASLGDRVTISCRASQDISKYLNWYQQKPDGTVKLLIYHTSRLHSGVPSRFSGSGSGTDYSLTISNLEQEDIATYFCQQGNTLPYTFGGGTKLEITTREQKLISEEDLSSCDVKLVEKSFETDTNLNFQNLSVIGFRILLLKVAGFNLLMTLRLWSSSSRAKRSGSGVKQTLNFDLLKLAGDVESNPGPSRGHMTEYKPTVRLATRDDVPRAVRTLAAAFADYPATRHTVDPDRHIERVTELQELFLTRVGLDIGKVWVADDGAAVAVWTTPESVEAGAVFAEIGPRMAELSGSRLAAQQQMEGLLAPHRPKEPAWFLATVGVSPDHQGKGLGSAVVLPGVEAAERAGVPAFLETSAPRNLPFYERLGFTVTADVEVPEGPRTWCMTRKPGA	RAJI (+), NALM6 (+)
